Target: T1, OSCP-NT (R6-G114) (human, UniProt P48047 29-137)
T1 construct: Used unlabelled (added in excess) or 15N-labelled (observed); cleavage leaves no additional residues; also called N-terminal domain of OSCP; source: E. coli BL21(DE3), purified (Ni-HisTrap, Ulp1 cleavage, cation exchange, Superdex 75); not shown: His6-SUMO, N-terminal, cleaved
T1 sequence (looked up): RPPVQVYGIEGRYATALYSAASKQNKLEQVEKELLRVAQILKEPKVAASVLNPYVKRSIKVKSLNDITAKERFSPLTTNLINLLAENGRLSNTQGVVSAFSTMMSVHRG
Assay: NMR titration; 1H-15N SOFAST-HMQC of 15N-labelled IF1-NT without and with 15-fold molar excess of unlabelled OSCP-NT or OSCP-CT; for OSCP-NT: 30 μM IF1-NT, 450 μM OSCP-NT, 50 mM phosphate, 300 mM NaCl, pH 7.0, 7 °C
Conditions: both partners purified

binding result: binds
B1: IF1-NT (G1-E40) (domain or fragment, human, UniProt Q9UII2 26-65, looked up)
chain: GSDQSENVDRGAGSIREAGGAFGKREQAEEERYFRAQSRE
notes: Used 15N-labelled (observed) or unlabelled (added in excess); cleavage leaves no additional residues; also called IF1-1NT; N-terminal domain of IF1; source: E. coli BL21(DE3), purified (Ni-HisTrap, Ulp1 cleavage, second Ni-HisTrap, Superdex 75); not shown: His6-SUMO, N-terminal, cleaved
